Source: the supplement of paper PMC11811203

B1: THAP1; numbered along this chain (parent)
chain: MVQSCSAYGCKNRYDKDKPVSFHKFPLTRPSLCKEWEAAVRRKNFKPTKYSSICSEHFTPDCFKRECNNKLLKENAVPTIFLCTEPHDKKEDLLEPQEQLPPPPLPPPVSQVDAAIGLLMPPLQTPVNLSVFCDHNYTVEDTMHQRKRIHQLEQQVEKLRKKLKTAQQRCRRQERQLEKLKEVVHFQKEKDDVSERGYVILPNDYFEIVEVPA

Variants of: B1
Assay: THAP1 transcriptional activity (GFP+/GFP- enrichment relative to wild-type constructs) (ratio to WT); higher = more THAP1 activity (PSMB5 reporter activation)
Conditions: with PSMB5 promoter-GFP reporter
Protocol: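 Deep mutational scan of human THAP1. Site-saturation single amino acid variant library (residues 2-213) was expressed by lentivirus at MOI ~0.3 in THAP1-knockout HEK-293T cells carrying an endogenous PSMB5 promoter-GFP knock-in reporter. Five days post-transduction, BFP+ cells were FACS-sorted into GFP dim and GFP bright populations and variants were counted by Illumina sequencing. Activity is the GFP-bright/GFP-dim read fold change, mean of 2 replicates, divided by the mean fold change of wild-type (synonymous) constructs in the same screen pool; WT = 1.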

| Variant | THAP1 transcriptional activity |
| --- | --- |
| C33W | 0.11 |
| C33Y | 0.162 |
| K34A | 0.749 |
| K34C | 0.284 |
| K34D | 0.207 |
| K34E | 0.59 |
| K34F | 0.281 |
| K34G | 0.217 |
| K34H | 0.459 |
| K34I | 0.528 |
| K34L | 0.613 |
| K34M | 0.397 |
| K34N | 0.391 |
| K34P | 0.0748 |
| K34Q | 0.971 |
| K34R | 0.841 |
| K34S | 0.646 |
| K34T | 0.337 |
| K34V | 0.529 |
| K34W | 0.233 |
| K34Y | 0.316 |
| E35A | 0.556 |
| E35C | 0.317 |
| E35D | 0.688 |

| Variant | THAP1 transcriptional activity |
| --- | --- |
| E35F | 0.223 |
| E35G | 0.183 |
| E35H | 0.328 |
| E35I | 0.451 |
| E35K | 0.751 |
| E35L | 1.18 |
| E35M | 0.787 |
| E35P | 0.243 |
| E35Q | 1.42 |
| E35R | 0.909 |
| E35S | 0.44 |
| E35T | 0.473 |
| E35V | 0.479 |
| E35W | 0.203 |
| E35Y | 0.266 |
| W36A | 0.0783 |
| W36C | 0.248 |
| W36D | 0.159 |
| W36E | 0.13 |
| W36F | 0.221 |
| W36G | 0.0718 |
| W36H | 0.187 |
| W36I | 0.0405 |
| W36K | 0.123 |

| Variant | THAP1 transcriptional activity |
| --- | --- |
| W36L | 0.338 |
| W36M | 0.182 |
| W36N | 0.101 |
| W36P | 0.167 |
| W36Q | 0.18 |
| W36R | 0.107 |
| W36S | 0.197 |
| W36T | 0.143 |
| W36V | 0.138 |
| W36Y | 0.178 |
| E37A | 0.542 |
| E37C | 0.963 |
| E37D | 0.182 |
| E37F | 0.177 |
| E37G | 0.195 |
| E37H | 0.454 |
| E37I | 0.988 |
| E37K | 0.292 |
| E37L | 1.16 |
| E37M | 0.792 |
| E37N | 0.451 |
| E37P | 0.245 |
| E37Q | 0.337 |
| E37R | 0.157 |

| Variant | THAP1 transcriptional activity |
| --- | --- |
| E37S | 0.558 |
| E37T | 0.905 |
| E37V | 0.484 |
| E37W | 0.0974 |
| E37Y | 0.252 |
| A38C | 0.377 |
| A38D | 1 |
| A38E | 0.41 |
| A38F | 0.511 |
| A38G | 0.417 |
| A38H | 0.797 |
| A38I | 0.735 |
| A38K | 1.34 |
| A38M | 0.788 |
| A38N | 1.08 |
| A38P | 0.09 |
| A38Q | 0.891 |
| A38R | 1.14 |
| A38S | 0.593 |
| A38T | 0.773 |
| A38V | 0.684 |
| A38W | 0.234 |
| A39C | 0.272 |
| A39D | 0.172 |

| Variant | THAP1 transcriptional activity |
| --- | --- |
| A39E | 0.168 |
| A39F | 0.283 |
| A39G | 0.131 |
| A39H | 0.601 |
| A39I | 0.271 |
| A39K | 0.9 |
| A39L | 0.253 |
| A39M | 0.752 |
| A39N | 0.865 |
| A39P | 0.143 |
| A39Q | 0.502 |
| A39R | 0.673 |
| A39S | 0.512 |
| A39T | 0.26 |
| A39V | 0.252 |
| A39W | 0.289 |
| A39Y | 0.413 |
| V40A | 0.221 |
| V40C | 0.665 |
| V40D | 0.0854 |
| V40E | 0.113 |
| V40F | 0.119 |
| V40G | 0.0879 |
| V40H | 0.17 |

| Variant | THAP1 transcriptional activity |
| --- | --- |
| V40I | 1.6 |
| V40K | 0.127 |
| V40L | 0.867 |
| V40M | 0.853 |
| V40N | 0.136 |
| V40P | 0.128 |
| V40Q | 0.142 |
| V40R | 0.1 |
| V40S | 0.14 |
| V40T | 0.238 |
| V40W | 0.169 |
| V40Y | 0.101 |
| R41A | 1.37 |
| R41C | 0.763 |
| R41E | 0.197 |
| R41F | 0.233 |
| R41G | 1.52 |
| R41H | 0.827 |
| R41I | 0.146 |
| R41K | 1.05 |
| R41L | 0.233 |
| R41M | 0.475 |
| R41N | 0.809 |
| R41P | 0.0904 |

| Variant | THAP1 transcriptional activity |
| --- | --- |
| R41Q | 0.878 |
| R41S | 0.809 |
| R41T | 0.171 |
| R41V | 0.131 |
| R41W | 0.182 |
| R41Y | 0.274 |
| R42A | 0.127 |
| R42C | 0.114 |
| R42D | 0.0738 |
| R42E | 0.118 |
| R42F | 0.116 |
| R42G | 0.0813 |
| R42H | 0.105 |
| R42I | 0.181 |
| R42K | 0.189 |
| R42L | 0.104 |
| R42M | 0.0797 |
| R42P | 0.0977 |
| R42Q | 0.202 |
| R42S | 0.158 |
| R42T | 0.103 |
| R42V | 0.136 |
| R42W | 0.128 |
| R42Y | 0.103 |

| Variant | THAP1 transcriptional activity |
| --- | --- |
| K43A | 0.587 |
| K43C | 0.621 |
| K43D | 0.503 |
| K43E | 0.598 |
| K43F | 0.153 |
| K43G | 0.329 |
| K43H | 0.626 |
| K43I | 0.615 |
| K43L | 0.454 |
| K43M | 0.434 |
| K43P | 0.957 |
| K43Q | 1.02 |
| K43R | 0.716 |
| K43S | 0.623 |
| K43T | 0.689 |
| K43V | 0.726 |
| K43W | 0.278 |
| K43Y | 0.365 |
| N44A | 0.194 |
| N44C | 0.476 |
| N44D | 1.16 |
| N44E | 0.348 |
| N44F | 0.301 |
| N44G | 1.06 |

| Variant | THAP1 transcriptional activity |
| --- | --- |
| N44H | 0.574 |
| N44I | 0.118 |
| N44K | 0.462 |
| N44L | 0.205 |
| N44M | 0.177 |
| N44P | 0.0859 |
| N44R | 0.178 |
| N44S | 0.494 |
| N44T | 0.439 |
| N44V | 0.111 |
| N44W | 0.123 |
| N44Y | 0.297 |
| F45A | 0.0632 |
| F45C | 0.027 |
| F45D | 0.0693 |
| F45E | 0.0902 |
| F45G | 0.0858 |
| F45H | 0.161 |
| F45I | 0.0544 |
| F45K | 0.0558 |
| F45L | 0.142 |
| F45M | 0.12 |
| F45N | 0.108 |
| F45P | 0.114 |

| Variant | THAP1 transcriptional activity |
| --- | --- |
| F45Q | 0.128 |
| F45R | 0.146 |
| F45S | 0.0855 |
| F45T | 0.0941 |
| F45V | 0.0786 |
| F45Y | 0.154 |
| K46A | 0.436 |
| K46C | 0.377 |
| K46D | 0.0595 |
| K46E | 0.212 |
| K46F | 0.339 |
| K46G | 0.0852 |
| K46H | 0.654 |
| K46I | 0.465 |
| K46L | 0.23 |
| K46M | 0.442 |
| K46N | 0.295 |
| K46P | 0.126 |
| K46Q | 0.581 |
| K46R | 0.568 |
| K46S | 0.379 |
| K46T | 0.869 |
| K46V | 0.455 |
| K46W | 0.148 |

| Variant | THAP1 transcriptional activity |
| --- | --- |
| K46Y | 0.335 |
| P47A | 0.896 |
| P47C | 0.229 |
| P47D | 0.108 |
| P47E | 0.173 |
| P47F | 0.0757 |
| P47G | 0.111 |
| P47H | 0.106 |
| P47I | 0.36 |
| P47K | 0.111 |
| P47L | 0.242 |
| P47N | 0.138 |
| P47Q | 0.104 |
| P47R | 0.0941 |
| P47S | 0.14 |
| P47T | 0.151 |
| P47V | 0.712 |
| P47W | 0.0629 |
| P47Y | 0.114 |
| T48A | 0.107 |
| T48C | 0.128 |
| T48D | 0.113 |
| T48E | 0.0991 |
| T48F | 0.109 |

| Variant | THAP1 transcriptional activity |
| --- | --- |
| T48G | 0.419 |
| T48H | 0.102 |
| T48I | 0.123 |
| T48K | 0.158 |
| T48L | 0.115 |
| T48M | 0.138 |
| T48N | 0.545 |
| T48P | 0.174 |
| T48Q | 0.0994 |
| T48R | 0.132 |
| T48S | 0.729 |
| T48V | 0.12 |
| T48W | 0.0814 |
| T48Y | 0.0779 |
| K49A | 0.22 |
| K49C | 0.185 |
| K49D | 0.12 |
| K49E | 0.105 |
| K49F | 0.122 |
| K49G | 0.123 |
| K49H | 0.0815 |
| K49I | 0.398 |
| K49L | 0.234 |
| K49M | 0.232 |

| Variant | THAP1 transcriptional activity |
| --- | --- |
| K49N | 0.177 |
| K49P | 0.264 |
| K49Q | 0.317 |
| K49R | 0.427 |
| K49S | 0.261 |
| K49T | 0.138 |
| K49V | 0.257 |
| K49W | 0.1 |
| K49Y | 0.0951 |
| Y50A | 0.294 |
| Y50C | 0.275 |
| Y50D | 0.129 |
| Y50E | 0.108 |
| Y50F | 0.616 |
| Y50G | 0.1 |
| Y50H | 0.759 |
| Y50I | 0.112 |
| Y50K | 0.0751 |
| Y50L | 0.135 |
| Y50M | 0.091 |
| Y50N | 0.389 |
| Y50P | 0.103 |
| Y50Q | 0.0845 |
| Y50R | 0.09 |

| Variant | THAP1 transcriptional activity |
| --- | --- |
| Y50S | 0.268 |
| Y50T | 0.13 |
| Y50V | 0.12 |
| S51A | 0.32 |
| S51C | 0.128 |
| S51D | 0.0561 |
| S51E | 0.185 |
| S51F | 0.102 |
| S51G | 0.0575 |
| S51H | 0.145 |
| S51I | 0.124 |
| S51K | 0.121 |
| S51L | 0.111 |
| S51M | 0.26 |
| S51N | 0.16 |
| S51P | 0.118 |
| S51Q | 0.0846 |
| S51R | 0.0935 |
| S51T | 0.421 |
| S51V | 0.102 |
| S51W | 0.122 |
| S51Y | 0.0754 |
